Measured values as given in publication PMC2844450.
Blank lines part the entries; values can stand above or below the molecule they belong to.

How the values were obtained:
Experiment in all cases: enzyme inhibition kinetics
[1] = target: fXa-D189S (factor Xa with Asp-189 replaced by Ser)
[2] = target: Factor Xa (activated factor X), plasma protein
[3] = target: Bovine α-chymotrypsin (bovine)
[4] = target: fXa-D189S (factor Xa with Asp-189 replaced by Ser); remark: listed apart in the source
[5] = target: Factor Xa (activated factor X), plasma protein; remark: listed apart in the source

KD with heparin (ternary encounter complex, first step) [1]: 194 nM
k2 with heparin [1]: 1.02e+06 M⁻¹ s⁻¹
k2 with heparin (k/KD) [1]: 1e+06 M⁻¹ s⁻¹
k2 (second-order association rate constant of inhibition), no heparin [2]: 3090 M⁻¹ s⁻¹
k2 with heparin [2]: 4.35e+07 M⁻¹ s⁻¹
k2 (second-order association rate constant of inhibition), no heparin [3]: 83 M⁻¹ s⁻¹
Molecule: Human wild-type antithrombin (from UniProt P01008 33-464) (natural protein)

k2 (second-order rate constant of inhibition), presence of PZ [1]: 830000
k2 (second-order rate constant of inhibition), presence of PZ [2]: 780000
Molecule: ZPI in complex with protein Z (PZ) (from UniProt Q9UK55 22-444; P22891 41-400)

k2 (second-order rate constant of inhibition), absence of PZ [4]: 2300
k2 (second-order rate constant of inhibition), absence of PZ [5]: 1900
B1: Protein Z-dependent protease inhibitor, wild type (natural protein)
chain: LAPSPQSPETPAPQNQTSRVVQAPKEEEEDEQEASEEKASEEEKAWLMASRQQLAKETSNFGFSLLRKISMRHDGNMVFSPFGMSLAMTGLMLGATGPTETQIKRGLHLQALKPTKPGLLPSLFKGLRETLSRNLELGLTQGSFAFIHKDFDVKETFFNLSKRYFDTECVPMNFRNASQAKRLMNHYINKETRGKIPKLFDEINPETKLILVDYILFKGKWLTPFDPVFTEVDTFHLDKYKTIKVPMMYGAGKFASTFDKNFRCHVLKLPYQGNATMLVVLMEKMGDHLALEDYLTTDLVETWLRNMKTRNMEVFFPKFKLDQKYEMHELLRQMGIRRIFSPFADLSELSATGRNLQVSRVLQRTVIEVDERGTEAVAGILSEITAYSMPPVIKVDRPFHFMIYEETSGMLLFLGRVVNPTLL
